Read-outs that look alike come from different tables or passages of the source.
Columns and labels:
Assay type in all cases: in vivo
[1] = Biodistribution in mice bearing BxPC-3 xenografts; conditions: female, athymic nude, mouse, iv, total radioactivity, BxPC-3 tumor-bearing mice, 1 h p.i.
Description: (§1) Animals were supplied by Charles River Laboratories (Wilmington, MA, USA), and were handled in compliance with the Guidelines for Care and Use of Research Animals established by the Division of Comparative Medicine and the Animal Studies Committee of Washington University School of Medicine under protocol #20–0214. Female athymic nude mice were inoculated on the right flank with 10 × 10^6 CaSki or 5 × 10^6 BxPC-3 cells. Tumors were allowed to grow until they approached approximately 100 mm^3 in volume. Radiolabeled peptides were diluted in saline to a dose of 0.37 MBq (10 μCi) per 100 μl. […] For blocking experiments, non-PEGylated peptide (100 μg in 100 μL saline) was injected ten minutes before radiotracer. Blood, lung, liver, spleen, kidney, muscle, heart, bone, and tumor were harvested. The amount of radioactivity in each organ was determined by gamma counting, and the percent injected dose per gram of tissue (% ID/g) was calculated.

[2] = Small animal PET/CT imaging, BxPC-3 tumors; conditions: female, mouse, tumor (BxPC-3 xenograft), iv, total radioactivity, athymic nude mice bearing BxPC-3 tumors, 3.7 MBq i.v., without blocking, n = 3, read-out: SUVmax of tumors
Description: BxPC-3 cells (5 × 10^6) were inoculated in the right shoulder of female athymic nude mice 3–4 weeks before PET imaging sessions. All the experiments involving animals followed the Guidelines for Care and Use of Research Animals established by the Division of Comparative Medicine and the Animal Studies Committee of Washington University School of Medicine under protocol #20–0214. […] Mice were imaged with CT followed by static PET scans at 1, 4, and 24 h after tracer administration on an Inveon small animal PET/CT scanner (Siemens Medical Solutions, Malvern, PA, USA). Static images were collected for 20 min and reconstructed with the maximum a posteriori (MAP) reconstruction algorithm using the Inveon Reseach Workstation image display software (Siemens). Regions of interest (ROI) were selected based on co-registered anatomical CT images, and the associated radioactivity was measured using the Inveon software. The maximum standard uptake value (SUV) was calculated as the highest regional radioactivity concentration (nCi/cc) × animal weight (g)/decay-corrected amount of injected dose (nCi).

[3] = Biodistribution in mice bearing CaSki xenografts; conditions: female, athymic nude, mouse, iv, total radioactivity; for tissue uptake at 1 h: 1 h p.i.; for tissue uptake at 24 h: 24 h p.i.
Description: as §1

Compound: CC(C)C[C@H](NC(=O)[C@H](CC(=O)O)NC(=O)CNC(=O)[C@H](CCCNC(=N)N)NC(=O)[C@H](CC(C)C)NC(=O)[C@H](CC(N)=O)NC(=O)[C@@H]1CCCN1C(=O)[C@@H](NC(=O)[C@H](C)NC(=O)[C@H](CC(N)=O)NC(=O)CCOCCOCCOCCOCCOCCOCCOCCOCCOCCOCCOCCOCCOCCOCCOCCOCCOCCOCCOCCOCCOCCOCCOCCOCCOCCOCCOCCOCCNC(=O)CN1CCN(CC(=O)O)CCN(CC(=O)O)CCN(CC(=O)O)CC1)C(C)C)C(=O)N[C@@H](CCC(N)=O)C(=O)N[C@H](C(=O)N[C@@H](CC(C)C)C(=O)N[C@@H](C)C(=O)N[C@@H](CCC(N)=O)C(=O)N[C@@H](CCCCN)C(=O)N[C@H](C(=O)N[C@@H](C)C(=O)N[C@@H](CCCNC(=N)N)C(=O)N[C@H](C(=O)NCCOCCOCCOCCOCCOCCOCCOCCOCCOCCOCCOCCOCCOCCOCCOCCOCCOCCOCCOCCOCCOCCOCCOCCOCCOCCOCCOCCOCCC(N)=O)[C@@H](C)O)C(C)C)C(C)C [[^64Cu]Cu-DOTA-(PEG28)2-A20FMDV2, metal not drawn]
- tissue uptake at 1 h ([1]; blood, 0.37 MBq i.v., gamma counting, mean, n = 4, read-out: Uptake in Blood): 0.28 %ID/g
- tissue uptake at 1 h ([1]; blood, non-PEGylated A20FMDV2 100 μg injected 10 min before radiotracer, read-out: Uptake in Blood, 1 h Block): 0.24 %ID/g
- tissue uptake at 1 h ([1]; bone, 0.37 MBq i.v., gamma counting, mean, n = 4, read-out: Uptake in Bone): 0.25 %ID/g
- tissue uptake at 1 h ([1]; bone, non-PEGylated A20FMDV2 100 μg injected 10 min before radiotracer, read-out: Uptake in Bone, 1 h Block): 0.28 %ID/g
- tissue uptake at 1 h ([1]; heart, 0.37 MBq i.v., gamma counting, mean, n = 4, read-out: Uptake in Heart): 1.01 %ID/g
- tissue uptake at 1 h ([1]; heart, non-PEGylated A20FMDV2 100 μg injected 10 min before radiotracer, read-out: Uptake in Heart, 1 h Block): 0.34 %ID/g
- tissue uptake at 1 h ([1]; 0.37 MBq i.v., gamma counting, mean, n = 4, read-out: Tumor Uptake): 2.12 ± 0.83 %ID/g
- tissue uptake at 1 h ([1]; kidney, 0.37 MBq i.v., gamma counting, mean, n = 4, read-out: Uptake in Kidney): 38 %ID/g
- tissue uptake at 1 h ([1]; kidney, non-PEGylated A20FMDV2 100 μg injected 10 min before radiotracer, read-out: Uptake in Kidney, 1 h Block): 27.6 %ID/g
- tissue uptake at 1 h ([1]; liver, 0.37 MBq i.v., gamma counting, mean, n = 4, read-out: Uptake in Liver): 2.79 %ID/g
- tissue uptake at 1 h ([1]; liver, non-PEGylated A20FMDV2 100 μg injected 10 min before radiotracer, read-out: Uptake in Liver, 1 h Block): 2.59 %ID/g
- tissue uptake at 1 h ([1]; lung, 0.37 MBq i.v., gamma counting, mean, n = 4, read-out: Uptake in Lung): 1.73 %ID/g
- tissue uptake at 1 h ([1]; lung, non-PEGylated A20FMDV2 100 μg injected 10 min before radiotracer, read-out: Uptake in Lung, 1 h Block): 1.14 %ID/g
- tissue uptake at 1 h ([1]; muscle, 0.37 MBq i.v., gamma counting, mean, n = 4, read-out: Uptake in Muscle): 0.62 %ID/g
- tissue uptake at 1 h ([1]; muscle, non-PEGylated A20FMDV2 100 μg injected 10 min before radiotracer, read-out: Uptake in Muscle, 1 h Block): 0.18 %ID/g
- tissue uptake at 1 h ([1]; spleen, 0.37 MBq i.v., gamma counting, mean, n = 4, read-out: Uptake in Spleen): 0.3 %ID/g
- tissue uptake at 1 h ([1]; spleen, non-PEGylated A20FMDV2 100 μg injected 10 min before radiotracer, read-out: Uptake in Spleen, 1 h Block): 0.34 %ID/g
- tissue uptake at 1 h ([1]; tumor (BxPC-3 xenograft), non-PEGylated A20FMDV2 100 μg injected 10 min before radiotracer, read-out: Tumor uptake, 1 h Block): 0.71 ± 0.16 %ID/g
- SUV at 1 h ([2]; PET at 1 h): 0.44 ± 0.02 SUV
- SUV at 4 h ([2]; PET at 4 h): 0.57 ± 0.15 SUV
- SUV at 24 h ([2]; PET at 24 h): 0.69 ± 0.09 SUV
- tissue uptake at 1 h ([3]; blood, CaSki tumor-bearing mice, 0.37 MBq i.v., gamma counting, mean, n = 4, read-out: Uptake in Blood): 0.22 %ID/g
- tissue uptake at 24 h ([3]; blood, CaSki tumor-bearing mice, 0.37 MBq i.v., read-out: Radioactivity remaining in the blood): 0.26 ± 0.07 %ID/g
- tissue uptake at 1 h ([3]; blood, CaSki tumor-bearing mice, non-PEGylated A20FMDV2 100 μg injected 10 min before radiotracer, read-out: Uptake in Blood, 1 h Block): 0.13 %ID/g
- tissue uptake at 1 h ([3]; bone, CaSki tumor-bearing mice, 0.37 MBq i.v., gamma counting, mean, n = 4, read-out: Uptake in Bone): 0.62 %ID/g
- tissue uptake at 1 h ([3]; bone, CaSki tumor-bearing mice, non-PEGylated A20FMDV2 100 μg injected 10 min before radiotracer, read-out: Uptake in Bone, 1 h Block): 0.27 %ID/g
- tissue uptake at 1 h ([3]; heart, CaSki tumor-bearing mice, 0.37 MBq i.v., gamma counting, mean, n = 4, read-out: Uptake in Heart): 0.71 %ID/g
- tissue uptake at 1 h ([3]; heart, CaSki tumor-bearing mice, non-PEGylated A20FMDV2 100 μg injected 10 min before radiotracer, read-out: Uptake in Heart, 1 h Block): 0.58 %ID/g
- tissue uptake at 1 h ([3]; kidney, CaSki tumor-bearing mice, 0.37 MBq i.v., gamma counting, mean, n = 4, read-out: Uptake in Kidney): 42.7 ± 4.03 %ID/g
- tissue uptake at 4 h ([3]; kidney, CaSki tumor-bearing mice, 0.37 MBq i.v., 4 h p.i.): 37 ± 10.6 %ID/g
- tissue uptake at 24 h ([3]; kidney, CaSki tumor-bearing mice, 0.37 MBq i.v., read-out: Uptake in Kidney): 21 ± 4.67 %ID/g
- tissue uptake at 1 h ([3]; kidney, CaSki tumor-bearing mice, non-PEGylated A20FMDV2 100 μg injected 10 min before radiotracer, read-out: Uptake in Kidney, 1 h Block): 35.5 %ID/g
- tissue uptake at 1 h ([3]; liver, CaSki tumor-bearing mice, 0.37 MBq i.v., gamma counting, mean, n = 4, read-out: Uptake in Liver): 1.04 %ID/g
- tissue uptake at 1 h ([3]; liver, CaSki tumor-bearing mice, non-PEGylated A20FMDV2 100 μg injected 10 min before radiotracer, read-out: Uptake in Liver, 1 h Block): 0.94 %ID/g
- tissue uptake at 1 h ([3]; lung, CaSki tumor-bearing mice, 0.37 MBq i.v., gamma counting, mean, n = 4, read-out: Uptake in Lung): 1.37 %ID/g
- tissue uptake at 1 h ([3]; lung, CaSki tumor-bearing mice, non-PEGylated A20FMDV2 100 μg injected 10 min before radiotracer, read-out: Uptake in Lung, 1 h Block): 1.19 %ID/g
- tissue uptake at 1 h ([3]; muscle, CaSki tumor-bearing mice, 0.37 MBq i.v., gamma counting, mean, n = 4, read-out: Uptake in Muscle): 0.73 %ID/g
- tissue uptake at 1 h ([3]; muscle, CaSki tumor-bearing mice, non-PEGylated A20FMDV2 100 μg injected 10 min before radiotracer, read-out: Uptake in Muscle, 1 h Block): 0.51 %ID/g
- tissue uptake at 1 h ([3]; spleen, CaSki tumor-bearing mice, 0.37 MBq i.v., gamma counting, mean, n = 4, read-out: Uptake in Spleen): 0.17 %ID/g
- tissue uptake at 1 h ([3]; spleen, CaSki tumor-bearing mice, non-PEGylated A20FMDV2 100 μg injected 10 min before radiotracer, read-out: Uptake in Spleen, 1 h Block): 0.13 %ID/g
- tissue uptake at 1 h ([3]; tumor (CaSki xenograft), 0.37 MBq i.v., gamma counting, mean, n = 4, read-out: Tumor Uptake): 0.95 ± 0.29 %ID/g
- tissue uptake at 1 h ([3]; tumor (CaSki xenograft), non-PEGylated A20FMDV2 100 μg injected 10 min before radiotracer, read-out: Tumor uptake, 1 h Block): 0.65 ± 0.17 %ID/g

Reference: paper PMC8849274 (Oncotarget, 2022)
